The values that follow come from PMC5685495.

This test addresses wild-type human dopamine transporter (human) (UniProt Q01959).
Sequence of UniProt Q01959 (Q01959 whole entry): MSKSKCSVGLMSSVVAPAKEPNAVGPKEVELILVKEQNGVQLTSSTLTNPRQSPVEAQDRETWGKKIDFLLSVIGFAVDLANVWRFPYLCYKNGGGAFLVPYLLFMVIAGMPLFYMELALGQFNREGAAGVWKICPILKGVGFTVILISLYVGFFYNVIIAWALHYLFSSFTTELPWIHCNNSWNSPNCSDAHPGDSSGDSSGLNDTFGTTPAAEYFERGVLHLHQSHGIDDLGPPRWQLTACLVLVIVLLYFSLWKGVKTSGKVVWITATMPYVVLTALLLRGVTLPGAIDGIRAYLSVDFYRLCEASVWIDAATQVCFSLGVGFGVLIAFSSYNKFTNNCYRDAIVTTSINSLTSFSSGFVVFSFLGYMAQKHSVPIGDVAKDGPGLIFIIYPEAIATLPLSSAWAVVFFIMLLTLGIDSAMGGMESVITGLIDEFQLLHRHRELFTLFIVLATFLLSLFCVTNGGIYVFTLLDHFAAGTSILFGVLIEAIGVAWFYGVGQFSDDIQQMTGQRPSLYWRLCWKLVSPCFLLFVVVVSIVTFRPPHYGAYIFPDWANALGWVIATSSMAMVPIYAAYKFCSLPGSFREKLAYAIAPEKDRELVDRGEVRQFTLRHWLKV

Turning to “Recombinant Tat1-86 (from UniProt P04608 1-86) (natural protein)”, the decrease in DA uptake by WT hDAT in the presence of recombinant Tat1-86 came out at 31%.
